Here are results for one substance from publication PMC3829478.

For the experiment, the target named is Frizzled-7 receptor, endogenous (rat (endogenous in fetal rat brain growth cone particles and hippocampal neurons)).

For “Wingless-type family member 3A (recombinant mouse Wnt3a) (from UniProt P27467 19-352) (ligand)”, the percent of hippocampal neurons with an identifiable Tau-1 containing axon (stage 3) after 20 h with 1.35 nM Wnt3a is above 55%.
